Patent US20060286142A1

Target: biotinylated alkaline phosphatase
Assay: SPR (Spreeta) refractive index response to 2 ug/ml b-AP on gold channels saturated with GBP-SA then GBP, after exposure to foulants (fibrinogen, human serum albumin, plasma, platelets)

His6 tagged fusion protein streptavidin-GBP (from UniProt P22629 13-133)
relative response to b-AP (% of GBP-SA control channel): 80 to 100%
